Laboratory results reported in PMC2148129.
Where two headings read alike, the source gives them in different places.

Legend:
[1] = target: peripheral node addressin; experiment: parallel plate laminar flow chamber, duration of transient cell tethers
[2] = target: peripheral node addressin; experiment: as above; remark: listed apart in the source

transient tether lifetime [1]: 0.087 s | transient tether lifetime [2]: 0.057 s
B1: L-selectin (receptor)
chain: WTYHYSEKPMNWQRARRFCRDNYTDLVAIQNKAEIEYLEKTLPFSRSYYWIGIRKIGGIWTWVGTNKSLTEEAENWGDGEPNNKKNKEDCVEIYIKRNKDAGKWNDDACHKLKAALCYTASCQPWSCSGHGECVEIINNYTCNCDVGYYGPQCQFVIQCEPLEAPELGTMDCTHPLGNFSFSSQCAFSCSEGTNLTGIEETTCGPFGNWSSPEPTCQVIQCEPLSAPDLGIMNCSHPLASFSFTSACTFICSEGTELIGKKKTICESSGIWSNPSPICQKLDKSFSMIKEGDYNPLFIPVAVMVTAFSGLAFIIWLARRLKKGKKSKRSMNDPY
